From patent US20250197488A1 (MABWELL SHANGHAI BIOSCIENCE, published 2025)

Experiments:
[1] = molecular target: T1, human IL-11 (AAH12506.1, Pro22-Leu199) (human, UniProt P20809 22-199); experiment: BLI (Octet), antibody captured, human IL-11 in solution
T1 construct: The range Pro22-Leu199 counts on AAH12506.1; The Octet runs say only 'human IL-11'; also called hIL-11
T1 chain: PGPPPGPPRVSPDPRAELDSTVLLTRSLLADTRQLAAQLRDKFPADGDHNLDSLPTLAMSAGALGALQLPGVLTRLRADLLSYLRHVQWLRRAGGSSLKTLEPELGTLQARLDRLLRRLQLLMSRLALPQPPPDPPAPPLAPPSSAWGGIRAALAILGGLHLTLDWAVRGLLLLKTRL
Outline: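 Bio-layer interferometry on a Fortebio Octet QKe System. Antibodies (hybridoma supernatant or purified, diluted in HBS-EP+ buffer) were captured on anti-mouse IgG Fc (AMC) or anti-human Fc (AHC) biosensors. Human IL-11 at 300 nM in HBS-EP+ buffer flowed over, with 300 seconds association and 300 seconds dissociation. Blank-subtracted curves were fitted to a 1:1 Langmuir binding model to derive kon, koff and Kd.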

[2] = molecular target: T2, IL-11 (Cat. 12225-HNCE, Sino Biological Inc.) (UniProt P20809 22-199, limits assumed); experiment: cell-based or functional assay
T2 sequence (looked up): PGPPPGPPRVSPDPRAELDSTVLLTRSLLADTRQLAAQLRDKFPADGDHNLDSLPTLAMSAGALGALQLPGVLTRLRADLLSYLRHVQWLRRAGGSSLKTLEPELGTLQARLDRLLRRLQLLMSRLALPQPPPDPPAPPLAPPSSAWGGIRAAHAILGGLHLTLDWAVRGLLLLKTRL

Binder	Kd [1] [nM]	koff [1] [s⁻¹]	kon [1] [M⁻¹ s⁻¹]	Blocking activity (IC50), STAT3-luc reporter [2] [µg/mL]
hz18A10-VHm5 + hz18A10-VLm9 (antibody, V domains shown, Constant regions not restated for this antibody) VH: EVQLVQSGAEVKKPGASVKVSCKASGYTFITYNMDWVRQAPGQGLEWMGTIYPGNGDTSYNQKFKGRVTMTRDTSTSTAYMELSSLRSEDTAVYYCARADLHFLDYWGQGTLVTVSS VL: DIQMTQSPSSLSASVGDRVTITCKASQSVYSDVAWYQQKPGKAPKLLIYSASNRYTGVPSRFSGSGSGTDFTFTISSLQPEDIATYYCQHDYSSPYTFGQGTKLEIK	1.15	0.000732	639000	11.6
hz18A10-VHm6 + hz18A10-VLm9 (antibody, V domains shown, Constant regions not restated for this antibody) VH: EVQLVQSGAEVKKPGASVKVSCKASGYTFNHYDMDWVRQAPGQGLEWMGTIYPGNGDTSYNQKFKGRVTMTRDTSTSTVYMELSSLRSEDTAVYYCARGDLYALDYWGQGTLVTVSS VL: DIQMTQSPSSLSASVGDRVTITCKASQSVYSDVAWYQQKPGKAPKLLIYSASNRYTGVPSRFSGSGSGTDFTFTISSLQPEDIATYYCQHDYSSPYTFGQGTKLEIK	0.00718	7.17e-06	999000	0.034
hz18A10-VHm6 + hz18A10-VLm19 (antibody, V domains shown, Constant regions not restated for this antibody) VH: EVQLVQSGAEVKKPGASVKVSCKASGYTFNHYDMDWVRQAPGQGLEWMGTIYPGNGDTSYNQKFKGRVTMTRDTSTSTVYMELSSLRSEDTAVYYCARGDLYALDYWGQGTLVTVSS VL: DIQMTQSPSSLSASVGDRVTITCKASQSVYRDVAWYQQKPGKAPKLLIYSASNRYTGVPSRFSGSGSGTDFTFTISSLQPEDIATYYCQHDYSSPYTFGQGTKLEIK	0.213	0.000194	911000	0.017
hz18A10-VHm7 + hz18A10-VLm19 (antibody, V domains shown, Constant regions not restated for this antibody) VH: EVQLVQSGAEVKKPGASVKVSCKASGYTFTTYDIDWVRQAPGQGLEWMGTIYPGNGDTSYNQKFKGRVTMTRDTSTSTVYMELSSLRSEDTAVYYCARGDLYALDYWGQGTLVTVSS VL: DIQMTQSPSSLSASVGDRVTITCKASQSVYRDVAWYQQKPGKAPKLLIYSASNRYTGVPSRFSGSGSGTDFTFTISSLQPEDIATYYCQHDYSSPYTFGQGTKLEIK	0.105	0.000113	1.08e+06	1.22
hz18A10-VHm8 + hz18A10-VLm19 (antibody, V domains shown, Constant regions not restated for this antibody) VH: EVQLVQSGAEVKKPGASVKVSCKASGYTFTTYDMHWVRQAPGQGLEWMGTIYPGNGDTSYNQKFKGRVTMTRDTSTSTVYMELSSLRSEDTAVYYCARGDLYALDYWGQGTLVTVSS VL: DIQMTQSPSSLSASVGDRVTITCKASQSVYRDVAWYQQKPGKAPKLLIYSASNRYTGVPSRFSGSGSGTDFTFTISSLQPEDIATYYCQHDYSSPYTFGQGTKLEIK	1.44	0.0011	760000	8.64
hz18A10-VHm9 + hz18A10-VLm19 (antibody, V domains shown, Constant regions not restated for this antibody) VH: EVQLVQSGAEVKKPGASVKVSCKASGYTFTTYDMSWVRQAPGQGLEWMGTIYPGNGDTSYNQKFKGRVTMTRDTSTSTVYMELSSLRSEDTAVYYCARGDLYALDYWGQGTLVTVSS VL: DIQMTQSPSSLSASVGDRVTITCKASQSVYRDVAWYQQKPGKAPKLLIYSASNRYTGVPSRFSGSGSGTDFTFTISSLQPEDIATYYCQHDYSSPYTFGQGTKLEIK	0.538	0.000448	833000	0.99
hz18A10-VHm10 + hz18A10-VLm19 (antibody, V domains shown, Constant regions not restated for this antibody) VH: EVQLVQSGAEVKKPGASVKVSCKASGYTFNHYNMDWVRQAPGQGLEWMGTIYPGNGDTSYNQKFKGRVTMTRDTSTSTVYMELSSLRSEDTAVYYCARGDLYALDYWGQGTLVTVSS VL: DIQMTQSPSSLSASVGDRVTITCKASQSVYRDVAWYQQKPGKAPKLLIYSASNRYTGVPSRFSGSGSGTDFTFTISSLQPEDIATYYCQHDYSSPYTFGQGTKLEIK	0.235	0.000216	917000	0.136
